Experimental data published in paper PMC9340540 (2022).

B1: UFD-2 (enzyme)
chain: MIEDEKAGLQPMDISDASVFFFQADVESKDFLTSLFDCEGKSDDRMLRYADAIIDVQNLNFDVSPQCLQSNIAEIITKFVLLSQDGSRRGLSRSFNFIDPDIIAGCREEDAIEFLLINFVRCHHELGKSGTSNCYKKTLESTRKAVFSVFVMIQRGYLESQLRSQHASLVFTKRLLEDTVSNVFLRTLVEYLASTDECDEDAITETFNPIFGILRSGIICQRFEDNKDEIVRQILRVMNLLLSIRLPSNGPRPLSNLLVNREDFLPTPSEKIQGREFGLMSFLGPFFSYGLESSARRPNHRVFVDCEEDARKYDGSVNTEQKLYFQRMDPIRTMLHQLMLPLASDQGSRNKTLRWIATIISTNDIRTRSHYDPSDVLCDHYMTNFLSVMYMFSEKIDLSKIIVDYPFLPSSLINISKETRLKMDESGAVAFASQFADRPDEYHFSTVCFFLTIAAQRLVIPPLMNQISEYSRHLKELKHKINALKEKLNTVSGFERAEVEKKLNYETEHWKLMSRHLLCVKTQAQDPALMASSMDFVDKQMKFILNLLCDNLDLLGDDSQLPTEVSQMFCALPEYFLEDALDFYIFAISNGMKLLMERNADWISRLTVLFTQYHYIKSPFLVSKLVRVLSSIQPPLWFNVVRLRMAQENLLMCMIKFYSDFEDNGDFYEKFNVRGNIQYMLEKMEEDMFYKGKFMDMARECGAEFIRFVNMVINDATWCIDESLSGLKSIHDVEKKMANKVEWDNTDQEIRNQDLGVYEEAKRKVKGWLGTAKSNLKLLLSITVNSPEPFRTPVLGERLAAMLNHNLSQLIGSKASELKVKDPRSYGWEPREFVSLLISIYLKLNMPAFVKYIAYDERTYSPEFFHNAIECMRKNSIVGFSQLESFEHLAEDVKKEYEAKAELEEEYDDVPEEFKDPIMDAIMVDPVKLPSGHVMDRAVIERHLLSTPNNPFNRAPLSHNELSPDSELKAKIQEWICQKRNSKK
B2: HSP-1::6xHis (natural protein)
chain: not shown

Target: T1, CHN-1 (C. elegans)
T1 chain: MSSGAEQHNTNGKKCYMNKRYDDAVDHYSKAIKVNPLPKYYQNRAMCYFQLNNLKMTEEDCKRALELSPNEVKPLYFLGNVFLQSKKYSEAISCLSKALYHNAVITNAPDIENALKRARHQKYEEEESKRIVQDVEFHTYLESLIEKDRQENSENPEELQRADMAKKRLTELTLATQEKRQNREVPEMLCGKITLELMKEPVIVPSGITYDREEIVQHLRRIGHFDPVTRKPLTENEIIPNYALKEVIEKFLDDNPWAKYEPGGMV
Assay: ELISA

Binder	Kd [nM]
B1	37.8
B2	12.2
